Measured values published in patent publication US20230391867A1 (SHENZHEN ENDURING BIOTECH, published 2023).

What was measured:
[1] = molecular target: T1, CD47 on human cells (red blood cells from healthy human donors; BxPC3; ZR-75-1) (human, UniProt Q08722 19-323); test: cell-based or functional assay
[2] = molecular target: T2, Human CD47 Protein, Fc Tag (HPLC verified; Acro, cat:CD7-H5256-100ug) (human, UniProt Q08722 19-139); test: ELISA, plate coated with human CD47 Fc Tag protein, anti-SCACD3 detection
T2 construct: Bought Fc-tagged CD47 coated on the ELISA plate; not shown: Fc tag
T2 sequence (Q08722 19-139 limits assumed): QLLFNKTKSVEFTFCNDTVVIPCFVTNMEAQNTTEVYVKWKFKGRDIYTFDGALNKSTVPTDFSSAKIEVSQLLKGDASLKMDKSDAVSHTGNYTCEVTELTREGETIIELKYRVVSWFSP

[3] = molecular target: T1, CD47 on human cells (red blood cells …); test: flow cytometry, JY102-Alexa Fluor 488 at 10 ug/ml, % stained BxPC3 cells against % stained RBCs
Experimental: Again, RBC cells from healthy human donors or cultured BxPC3 cells were collected and resuspended to a concentration of approximately 5×10⁶ cells/ml in ice cold PBS, 3% BSA. 100 μl of cell suspension was used for each binding reaction and incubated with indicated doses of JY102-Alexa Fluor 488 for at least 30 min at room temperature (or 4° C. for the assay in panel C) in the dark. Then cells were washed 3 times by centrifugation at 400 g for 5 min and resuspended in ice cold PBS, 3% BSA. Each sample was subjected to flow cytometry analysis.

T1 sequence (Q08722 19-323): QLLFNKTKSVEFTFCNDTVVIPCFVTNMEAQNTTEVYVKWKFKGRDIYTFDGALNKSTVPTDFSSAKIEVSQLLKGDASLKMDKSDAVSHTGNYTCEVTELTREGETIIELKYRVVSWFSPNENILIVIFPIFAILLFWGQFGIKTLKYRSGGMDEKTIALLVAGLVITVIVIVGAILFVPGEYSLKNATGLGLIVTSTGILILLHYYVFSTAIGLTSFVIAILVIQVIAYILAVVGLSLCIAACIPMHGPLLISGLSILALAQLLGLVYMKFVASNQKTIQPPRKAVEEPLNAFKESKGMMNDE

B1: JY102 (30kmPEG-(SCACD3)SCACD47) (bispecific antibody)
scFv 1: not shown
scFv 2: DIVMTQSPLSLPVTPGEPASISCRSSQSIVYSNGNTYLGWYLQKPGQSPQLLIYKVSNRFSGVPDRFSGSGSGTDFTLKISRVEAEDVGVYYCFQGSHVPYTFGQGTKLEIKGGCSGGSGGSGGSGGQVQLVQSGAEVKKPGASVKVSCKASGYTFTNYNMHWVRQAPGQRLEWMGTIYPGNDDTSYNQKFKDRVTITADTSASTAYMELSSLRSEDTAVYYCARGGYRAMDYWGQGTLVTVSS
modifications: free thiol (Cys) in the VL-VH linker is conjugated to Azide-PEG10-Maleimide; the azide is clicked to the DBCO of 30kmPEG-Lys(SCACD3)-DBCO; free thiol (Cys) genetically inserted in the VH-VL linker is conjugated to the maleimide of 30kmPEG-Lys(maleimide)-DBCO
notes: also called Compound 12; compound 12
EC50 of T cell mediated cytotoxicity (MTS assay, expanded T cells, E:T 5:1, 24 h) to ZR75-1 [1]: 0.111 µg/mL
EC50 [2]: 0.187 µg/mL
fold difference in binding (BxPC3 cells against RBCs) [3]: 40 fold
